# Laboratory results reported in paper PMC6389498.
# Molecular target: PrfA WT (Listeria monocytogenes, UniProt P22262 1-237)
# Test: BLI; free L-Leu, PrfA:ligand 1:100, no inhibition
# Conditions: protein: recombinant; tags: His-tag (pET28a); chain copies: 2; blunt
# Sequence of PrfA WT (P22262 whole entry): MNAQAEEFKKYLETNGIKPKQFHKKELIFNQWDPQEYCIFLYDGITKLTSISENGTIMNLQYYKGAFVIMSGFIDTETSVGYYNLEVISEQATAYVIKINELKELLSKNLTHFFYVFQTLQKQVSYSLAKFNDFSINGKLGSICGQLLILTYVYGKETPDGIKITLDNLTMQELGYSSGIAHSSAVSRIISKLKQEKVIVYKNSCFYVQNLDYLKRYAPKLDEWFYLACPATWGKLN
binder,measurement,value
PplcA/Phly PrfA box (Phlybox) (dsDNA) DNA 1: TGTCCCTTTATCGTCGTTAACAAATGTTAATGCCTCGACA DNA 2: TGTCGAGGCATTAACATTTGTTAACGACGATAAAGGGACA,binding result,binds
